Measurements as given in PMC5579238, “MAPK1 of Leishmania donovani interacts and phosphorylates HSP70 and HSP90 subunits of foldosome complex” (Scientific Reports, 2017).
Where a name gives a salt, the structure may show the parent alone. Each block holds one compound with its values, some of them ahead of it.

Assays:
[1] = biological target: Leishmania donovani MAPK1 (L. donovani (endogenous in promastigotes))
LdMAPK1 = biological target: T1, LdMAPK1 (Leishmania donovani, UniProt E2CWC1); assay: Kinase-Glo Plus ATP consumption assay with recombinant HSP90 or HSP70 as substrate; Dixon plot; assay type: biochemical
T1 construct: GST fused rLdMAPK1 (pGEX-KG-LdMAPK1), expressed in E. coli
T1 sequence (E2CWC1 1-358): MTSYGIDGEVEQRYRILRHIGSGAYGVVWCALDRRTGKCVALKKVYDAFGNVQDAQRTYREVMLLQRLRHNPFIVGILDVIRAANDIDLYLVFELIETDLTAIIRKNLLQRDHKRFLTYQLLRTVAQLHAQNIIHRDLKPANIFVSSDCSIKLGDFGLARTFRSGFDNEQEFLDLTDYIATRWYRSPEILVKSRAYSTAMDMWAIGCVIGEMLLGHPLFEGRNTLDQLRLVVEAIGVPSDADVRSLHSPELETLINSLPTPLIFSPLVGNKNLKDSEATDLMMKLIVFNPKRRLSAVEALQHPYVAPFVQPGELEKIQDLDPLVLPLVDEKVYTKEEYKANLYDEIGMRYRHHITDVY

Chain of HSP70 (P17804 whole entry, the tested form may be a part): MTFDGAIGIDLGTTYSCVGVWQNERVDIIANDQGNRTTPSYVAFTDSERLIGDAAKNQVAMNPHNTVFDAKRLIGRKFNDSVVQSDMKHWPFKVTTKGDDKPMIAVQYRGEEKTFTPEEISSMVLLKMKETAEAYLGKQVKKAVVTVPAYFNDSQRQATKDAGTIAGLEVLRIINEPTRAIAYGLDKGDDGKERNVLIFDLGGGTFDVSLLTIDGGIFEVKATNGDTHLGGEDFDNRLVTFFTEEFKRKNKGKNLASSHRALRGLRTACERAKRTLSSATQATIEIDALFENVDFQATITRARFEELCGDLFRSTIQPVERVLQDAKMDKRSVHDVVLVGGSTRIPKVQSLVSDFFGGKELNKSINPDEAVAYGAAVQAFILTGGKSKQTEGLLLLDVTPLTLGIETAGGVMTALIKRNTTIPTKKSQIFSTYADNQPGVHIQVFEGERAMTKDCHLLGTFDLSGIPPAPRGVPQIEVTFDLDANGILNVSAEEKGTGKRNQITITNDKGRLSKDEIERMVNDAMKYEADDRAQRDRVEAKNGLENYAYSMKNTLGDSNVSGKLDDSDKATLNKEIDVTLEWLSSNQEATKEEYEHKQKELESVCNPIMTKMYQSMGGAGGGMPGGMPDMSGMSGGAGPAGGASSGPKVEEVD

Compound: HSP90 (natural protein)
Km of the in vitro kinase assay (ATP consumption, Kinase-Glo) of recombinant GST-LdMAPK1 with recombinant His-tagged HSP90 as substrate [1]: 0.0167 µM

Compound: HSP70 (from UniProt P17804 1-653) (natural protein)
Km of the in vitro kinase assay (ATP consumption, Kinase-Glo) of recombinant GST-LdMAPK1 with recombinant His-tagged HSP70 as substrate [1]: 0.0176 µM

Ki (LdMAPK1): 2.72 ± 0.14 µM
Compound: CCOc1ccc(C=C2SC(=O)N(CCN)C2=O)cc1 [AMTZD, 3-(2-aminoethyl)-5-([4-ethoxyphenyl]methylene)-2,4-thiazolidinedione HCl]
